Test [1] concerns the target T1, soluble dimeric FcγRIIB-Fc fusion protein (human, UniProt P31994 43-217).
T1 construct: extracellular domain; also called FcRIIB-Fc; FcγRIIB-G2; not shown: hinge-CH2-CH3 domain of human IgG2
T1 sequence (looked up): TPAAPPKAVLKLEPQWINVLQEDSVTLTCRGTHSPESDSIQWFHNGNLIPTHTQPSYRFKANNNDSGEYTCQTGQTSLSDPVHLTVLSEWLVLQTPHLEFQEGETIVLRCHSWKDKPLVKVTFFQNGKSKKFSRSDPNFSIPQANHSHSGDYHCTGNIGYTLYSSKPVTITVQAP
The test can be described thus: ELISA. Background: In an ELISA, binding on a coated surface is turned into a signal by an enzyme label.

For test [2], the target named is T1, soluble dimeric FcγRIIB-Fc fusion …. Nature of the test: BIAcore.
The target of a further test is T2, FcγRIIIA 158V (human, UniProt P08637 17-208, limits assumed).
T2 construct: valine at 158; also called 3aV158; CD16A 158V
Nature of the test: BIAcore, ch4-4-20.

T2 sequence (P08637 17-208 F176V limits assumed): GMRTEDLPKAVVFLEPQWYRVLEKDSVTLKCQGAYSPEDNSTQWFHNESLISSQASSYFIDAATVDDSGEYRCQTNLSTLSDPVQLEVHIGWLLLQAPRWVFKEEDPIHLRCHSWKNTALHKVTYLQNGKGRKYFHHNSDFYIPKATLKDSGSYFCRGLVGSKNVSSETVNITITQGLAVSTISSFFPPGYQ

B1: chimeric 4-4-20 anti-fluorescein antibody, wild type Fc (antibody)
chain 1: not shown
chain 2: DVVMTQTPLSLPVSLGDQASISCRSSQSLVHSNGNTYLRWYLQKPGQSPKVLIYKVSNRFSGVPDRFSGSGSGTDFTLKISRVEAEDLGVYFCSQSTHVPWTFGGGTKLEIKRTVAAPSVFIFPPSDEQLKSGTASVVCLLNNFYPREAKVQWKVDNALQSGNSQESVTEQDSKDSTYSLSSTLTLSKADYEKHKVYACEVTHQGLSSPVTKSFNRGEC
With B1, in test [1], the “ELISA, OD” value came out at 0.4 OD. In test [2], binding was characterised by a dissociation constant (Kd) of 0.0614 µM and the koff worked out at 0.085 s⁻¹.

B2: ch 4-4-20 E293V, Q295E, A327T (antibody)
chain: EPKSCDKTHTCPPCPAPELLGGPSVFLFPPKPKDTLMISRTPEVTCVVVDVSHEDPEVKFNWYVDGVEVHNAKTKPRVEEYNSTYRVVSVLTVLHQDWLNGKEYKCKVSNKTLPAPIEKTISKAKGQPREPQVYTLPPSREEMTKNQVSLTCLVKGFYPSDIAVEWESNGQPENNYKTTPPVLDSDGSFFLYSKLTVDKSRWQQGNVFSCSVMHEALHNHYTQKSLSLSPGK
For B2, the “Koff WT/Mut” value in the test with FcγRIIIA 158V was 0.86.

B3: ch 4-4-20 Y319F, P352L, P396L (antibody)
chain: EPKSCDKTHTCPPCPAPELLGGPSVFLFPPKPKDTLMISRTPEVTCVVVDVSHEDPEVKFNWYVDGVEVHNAKTKPREEQYNSTYRVVSVLTVLHQDWLNGKEFKCKVSNKALPAPIEKTISKAKGQPREPQVYTLLPSREEMTKNQVSLTCLVKGFYPSDIAVEWESNGQPENNYKTTPLVLDSDGSFFLYSKLTVDKSRWQQGNVFSCSVMHEALHNHYTQKSLSLSPGK
As for B3, in the test with FcγRIIIA 158V, the “Koff WT/Mut” value was 1.23.

One may read the Kd as the free concentration of one partner at which half of the binding sites on the other are occupied at equilibrium, for simple one-to-one binding. Higher therefore signals lower affinity. What is called koff is the rate constant with which the complex falls apart. Low readings indicate a long-lived complex, high ones a short-lived complex.

For the origin of these results see patent US20110243941A1 (published 2011).
